Test results published in the supplement of paper PMC6757056.
± gives the standard deviation of the averaged measurements.

B1: library; a variant is named by its letters at N, in order (parent)
chain: GCUGUCACCGAGAAACUGUGAAGUAUAUCUUAAACCUGGGCACUUAAAAGAUAUAUGGAGUUAGUAGUGCAACCUGCUCGGUCUGAUGAGUCCNNNNNNGGACGAAACAGC

Assays:
[1] = variants of: B1; assay: normalized RNA/DNA level without ligand (relative to sTRSVctl = 100) (log10 (% of sTRSVctl)); HEK293T; ligand: cyclic di-GMP (c-di-GMP-II aptamer); higher = less ribozyme self-cleavage, higher mRNA level; conditions: reporter: mCherry (pCS4076), ligand present: no
Outline: (§1)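 HEK293T cells received ligand, where used, 1 h before being transfected with 4 µg per 6-well well of library plasmids encoding reporter-linked ribozyme switches. After 72 h, RNA was extracted with EDTA and sequenced. RNA level was derived from RNA reads per DNA read, normalized to a spiked-in non-cleaving sequence or the top sequences, then scaled and log-transformed. Values were ×100 then log10, the top set was 25 sequences, and the minimum was 100 DNA reads.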

[2] = variants of: B1; assay: normalized RNA/DNA level with ligand (relative to sTRSVctl = 100) (log10 (% of sTRSVctl)); HEK293T; ligand: cyclic di-GMP (c-di-GMP-II aptamer); ligand concentration (+) RNA-Seq: 1 mM; higher = less ribozyme self-cleavage, higher mRNA level; conditions: reporter: mCherry (pCS4076), ligand present: yes
Outline: as §1

Variant	normalized RNA/DNA level without ligand (log10) [1]	normalized RNA/DNA level with ligand (log10) [2]
UUUCCU	1.812 ± 0.016	1.92 ± 0.1
UGAUCC	1.89 ± 0.055	1.98 ± 0.075
GCGGAU	1.43 ± 0.097	1.63 ± 0.11
CCCAAG	1.587 ± 0.0023	1.74 ± 0.17
AAUCAG	1.61 ± 0.057	1.76 ± 0.026
GUUGCA	1.81 ± 0.038	1.87 ± 0.1
AUGUCA	1.59 ± 0.072	1.78 ± 0.066
ACGCGU	1.504 ± 0.0098	1.71 ± 0.14
UACGCA	1.78 ± 0.018	1.89 ± 0.067
CGUCCC	1.75 ± 0.029	1.9 ± 0.086
GAGAAC	1.65 ± 0.031	1.8 ± 0.09
AUUCUC	1.806 ± 0.0079	1.89 ± 0.1
UACCUU	1.637 ± 0.0055	1.82 ± 0.12
CCACAC	1.65 ± 0.037	1.79 ± 0.073
GGCGCA	1.86 ± 0.064	1.92 ± 0.023
AAGUCC	1.76 ± 0.051	1.84 ± 0.085
GUGUCU	1.72 ± 0.031	1.84 ± 0.13
CAUGUG	1.71 ± 0.022	1.85 ± 0.092
CGGUCG	1.78 ± 0.042	1.9 ± 0.13
UCCGUU	1.6717 ± 0.00065	1.85 ± 0.12
UUCGAG	1.6344 ± 1.3e-05	1.81 ± 0.14
GGGAAA	1.46 ± 0.14	1.544 ± 0.007
CCCUAC	1.71 ± 0.026	1.82 ± 0.1
UCUUAA	1.64 ± 0.07	1.81 ± 0.044
ACAUCU	1.6 ± 0.07	1.76 ± 0.092
GCAGCC	1.6725 ± 0.00097	1.83 ± 0.14
CUAUUC	1.7 ± 0.012	1.85 ± 0.1

Variant	normalized RNA/DNA level without ligand (log10) [1]	normalized RNA/DNA level with ligand (log10) [2]
GGAUCC	1.86 ± 0.058	1.93 ± 0.055
GGGCUC	1.88 ± 0.051	1.98 ± 0.042
GCCUCC	1.71 ± 0.02	1.84 ± 0.091
GCCUCU	1.721 ± 0.017	1.87 ± 0.04
GACCCU	1.779 ± 0.0057	1.87 ± 0.089
CACUGG	1.7 ± 0.035	1.81 ± 0.13
UGUGUU	1.665 ± 0.0047	1.82 ± 0.16
CUCGGU	1.79 ± 0.021	1.89 ± 0.16
CACUCA	1.39 ± 0.1	1.62 ± 0.093
AUUGCG	1.713 ± 0.012	1.83 ± 0.09
CAGGGC	1.73 ± 0.044	1.86 ± 0.16
GACCGC	1.81 ± 0.036	1.8 ± 0.083
AGGCCU	1.768 ± 0.013	1.89 ± 0.099
CUGGUA	1.38 ± 0.086	1.59 ± 0.076
AUACUC	1.74 ± 0.022	1.87 ± 0.072
CUCAUG	1.68 ± 0.031	1.82 ± 0.14
CUUGGC	1.79 ± 0.034	1.92 ± 0.085
UCUGCG	1.78 ± 0.035	1.85 ± 0.12
GCGCCG	1.781 ± 0.0019	1.9 ± 0.1
AAGAAG	1.46 ± 0.049	1.66 ± 0.093
UAUUGC	1.76 ± 0.025	1.87 ± 0.088
UAGCUU	1.68 ± 0.055	1.81 ± 0.073
UCCCGG	1.855 ± 0.016	1.93 ± 0.069
AUGAAG	1.52 ± 0.13	1.67 ± 0.064
UUACUG	1.67 ± 0.016	1.84 ± 0.096
GCCGAG	1.65 ± 0.031	1.72 ± 0.091
UGCCGA	1.626 ± 0.012	1.79 ± 0.12

Variant	normalized RNA/DNA level without ligand (log10) [1]	normalized RNA/DNA level with ligand (log10) [2]
UCUCCU	1.77 ± 0.003	1.91 ± 0.14
CGGCAG	1.792 ± 0.0062	1.86 ± 0.077
UCAUCC	1.78 ± 0.027	1.9 ± 0.082
CUCAAA	1.38 ± 0.12	1.59 ± 0.076
CAAGGC	1.705 ± 0.0097	1.82 ± 0.12
AGCUAA	1.49 ± 0.02	1.7 ± 0.13
CCUAAA	1.4 ± 0.07	1.61 ± 0.14
UACAAA	1.65 ± 0.041	1.8 ± 0.057
GGUGCC	1.82 ± 0.077	1.95 ± 0.15
GUCGUG	1.62 ± 0.041	1.79 ± 0.1
GUCGUC	1.67 ± 0.036	1.78 ± 0.11
CAAAGC	1.717 ± 0.011	1.84 ± 0.091
CCACUC	1.7 ± 0.022	1.8 ± 0.1
GUACUA	1.61 ± 0.036	1.8 ± 0.065
CUGGGU	1.71 ± 0.033	1.85 ± 0.13
AUAAGU	1.55 ± 0.033	1.73 ± 0.12
AGUAUA	1.47 ± 0.015	1.69 ± 0.11
GGUUCG	1.7 ± 0.046	1.88 ± 0.075
CGUGAG	1.7 ± 0.026	1.83 ± 0.05
UAAAAU	1.615 ± 0.00033	1.79 ± 0.099
GUCUUA	1.677 ± 0.0086	1.83 ± 0.15
AACGUC	1.66 ± 0.024	1.78 ± 0.11
UUUGAG	1.71 ± 0.038	1.83 ± 0.12
UGUUCG	1.8 ± 0.023	1.89 ± 0.12
CUGGAC	1.63 ± 0.018	1.77 ± 0.096
